This note sets out measurements from US20210213134A1, “THIOL-BASED MULTIVALENT DRUG DELIVERY COMPOSITIONS” (ORPRO THERAPEUTICS, INC., priority 2018, published 2021).

Where two headings read alike, the source gives them in different places.

In experiment [1] the target is insulin (fully disulfide-bonded heterodimeric insulin). Description: cell-based or functional assay.
Experiment [2] shares this target. Description: cell-based or functional assay. This is another data set of the same source.

B1: reduced (active) C35STRX (enzyme)
chain: MVKQIESKTAFQEALDAAGDKLVVVDFSATWCGPSKMIKPFFHSLSEKYSNVIFLEVDVDDCQDVASECEVKCMPTFQFFKKGQKVGEFSGANKEKLEATINELV
modifications: active site Cys32 in the reduced state
For B1, in experiment [1], the % reduction C35STRX (insulin heterodimer peak, RP-HPLC), 90 min came to 97.7%; the column 'C35STRX' (taken as insulin heterodimer peak area, RP-HPLC), 0 min was determined as 10600; the column 'C35STRX' (taken as insulin heterodimer peak area, RP-HPLC), 90 min was 243. In experiment [2], this molecule yielded a % reduction C35STRX (insulin heterodimer peak, RP-HPLC), 0 min of 0%; a % reduction C35STRX (insulin heterodimer peak, RP-HPLC), 90 min of 99.4%; a column 'C35STRX' (taken as insulin heterodimer peak area, RP-HPLC), 0 min of 8520; a column 'C35STRX' (taken as insulin heterodimer peak area, RP-HPLC), 90 min of 50.2.

B2: Azido-C35STRX (C35STRX with azido-PEG linkers on Lys residues, reduced) (enzyme)
chain: MVKQIESKTAFQEALDAAGDKLVVVDFSATWCGPSKMIKPFFHSLSEKYSNVIFLEVDVDDCQDVASECEVKCMPTFQFFKKGQKVGEFSGANKEKLEATINELV
modifications: azido-PEG chains (NHS-PEG4-Azide) on Lys residues, average of 11 per molecule; active site Cys reduced with DTT
In experiment [1], B2 returned a % reduction Azido-C35STRX (insulin heterodimer peak, RP-HPLC), 0 min of 0%; a % reduction Azido-C35STRX (insulin heterodimer peak, RP-HPLC), 90 min of 33.1%; a column 'Azido-C35STRX' (taken as insulin heterodimer peak area, RP-HPLC), 0 min of 10200; a column 'Azido-C35STRX' (taken as insulin heterodimer peak area, RP-HPLC), 90 min of 6840. In experiment [2], this molecule had a % reduction Azido-C35STRX (insulin heterodimer peak, RP-HPLC), 90 min of 32.7%; an attenuation of the ability to reduce insulin disulfides vs. unconjugated monocysteinic thioredoxin of 70%; a column 'Azido-C35STRX' (taken as insulin heterodimer peak area, RP-HPLC), 0 min of 8960; a column 'Azido-C35STRX' (taken as insulin heterodimer peak area, RP-HPLC), 90 min of 6030.
